The results in this text go back to US20050142135A1, “Agents and methods for modulating interactions between gonadotropin hormones and receptors” (University of Kentucky Research Foundation, priority 2003, published 2005).

*1 amine or outer side, *2 acyl side, *3 side chain or, on linkers, in order; H or OH if unused. [ ]: non-standard residue; d: D form. The star is where a group is joined. ABG = 4-azidobenzoyl glycine, attached via its N-hydroxysuccinimide ester, [N-]=[N+]=Nc1ccc(C(=O)NCC(=O)*)cc1; Tyr(125I) = radioiodinated (125I) tyrosine, O=C([C@H](Cc1ccc(O[*:3])c([125I])c1)N[*:1])[*:2]

The target of one assay is T1, hCG (Homo sapiens, UniProt P01215+P0DN86).
T1 construct: purchased National Hormone and Pituitary Program
T1 sequence (P01215 25-116, other chains not shown): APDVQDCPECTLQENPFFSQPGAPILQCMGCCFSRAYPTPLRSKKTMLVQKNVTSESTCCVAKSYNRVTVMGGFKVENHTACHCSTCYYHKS
Kind of assay: Photoaffinity labeling of hCG with ABG-^125I-LHR^exo3. Type of assay: binding. The conditions noted are these: for inhibition of photoaffinity labeling of hCG by ABG-^125I-LHR^exo3: 4 mM of nonlabeled peptide. Here is the method:
A peptide mimic corresponding to the LHR exoloop 3 sequence of K^573 […]^583 (LHR^exo3) was synthesized, to which a Tyr residue was attached to the C-terminus for radioiodination. The N-terminus of the peptide was acetylated and the C-terminus amidated. NHS-ABG was synthesized as previously described and freshly dissolved in dimethyl sulfoxide to a concentration of 50 mM. The reagent was diluted in 0.1 M sodium phosphate (pH 7.5) to a concentration of 20 mM. The reagent solution was immediately used to derivatize receptor peptides. In the dark, […] of NHS-ABG was added to […] of receptor peptides in […] of 0.1 M sodium phosphate (pH 7.5), and the mixture was incubated for 30 minutes at 25° C. […] After 20 seconds, 7 μl of sodium metabisulfite (2.5 mg/ml) in 10 mM Na2 HPO4, pH 7.4, was introduced to terminate radioiodination. Derivatized and radioiodinated ABG-^exo3 I-LHR^exo3 solution was mixed with 60 μl of 16% sucrose solution in PBS and fractionated on Sephadex Superfine G-10 column (0.6×15 cm) using PBS.
(§1) The mixtures were incubated at 37° C. for 90 minutes in the dark, irradiated with Mineralight R-52 UV lamp for 3 minutes as previously described, and solubilized in 2% SDS, 100 mM dithiothreitol and 8 M urea. The samples were electrophoresed on 8-12% polyacrylamide gradient gels. Gels were dried on filter paper and exposed to an imaging screen overnight, which was scanned on a phosphoimager. Exoloop 3 was modeled.

A further assay has as its target T2, human LH (Homo sapiens, UniProt P01215+P01229).
T2 construct: purchased National Hormone and Pituitary Program
Briefly: Photoaffinity labeling of LH with ABG-^125I-LHR^exo3. Type of assay: binding. The conditions noted are these: increasing concentrations of LH. Here is the method:
The samples were processed.
as §1

Assay [1] has as its system phospholipase A, phospholipase C, phospholipase D and urokinase. Briefly: Labeling specificity of ABG-^125I-LHR^exo3 on other proteins. It is filed as binding. As for the experimental part:
as §1

In assay [2] the target is T3, FSH (Homo sapiens, UniProt P01215+P01225).
T3 construct: purchased National Hormone and Pituitary Program
T3 sequence (P01215 25-116): as the sequence (P01215 25-116, other chains not shown) above
T3 sequence (P01225 19-129): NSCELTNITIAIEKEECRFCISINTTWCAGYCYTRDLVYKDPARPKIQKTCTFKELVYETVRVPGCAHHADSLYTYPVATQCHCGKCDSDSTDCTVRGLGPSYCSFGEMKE
Kind of assay: Photoaffinity labeling of FSH with ^125I-FSHR^9-40F13Bpa. To be noted: increasing concentrations of nonradioactive peptide. Type of assay: binding. As for the experimental part: In the dark, 30 μg of receptor peptides in 40 μl of 0.1 M sodium phosphate (pH 7.5). The mixture was incubated for 30 minutes at 25° C. […] After 20 seconds, 7 μl of sodium metabisulfite (2.5 mg/ml) in 10 mM Na2HPO4, pH 7.4, was introduced to terminate radioiodination.
The mixtures were incubated at 37° C. for 90 minutes in the dark, irradiated with a Mineralight R-52 UV lamp for 3 minutes, and solubilized in 2% SDS, 100 mM dithiothreitol and 8 M urea. The samples were electrophoresed on 8-12% polyacrylamide gradient gels. Gels were dried on filter paper and exposed to an imaging screen overnight, which was scanned on a phosphoimager (Molecular Dynamics).
The FSH α and β subunits co-migrate on SDS-PAGE. To separate them on the gel FSH was deglycosylated with PNGase F and after it was photoaffinity labeled. Enzymatic cleavage was done by incubation of the labeled FSH complex with 20 or 50 units of PNGase F (New England BioLabs, Inc., MA) in 40 μl for 18 hours at 37° C. The samples were solubilized in SDS under the reducing condition and electrophoresed on 15% gel containing 9 M urea.

Assay [3] concerns the target T3, FSH. Kind of assay: Photoaffinity labeling of FSH with exoloop 3 peptide (ABG-^125I-FSHR^exo3). To be noted: increasing concentrations of unlabeled FSHR peptides. Type of assay: binding. As for the experimental part:
A peptide mimic corresponding to the exoloop 3 sequence of K^580 […]^590 (FSHR exo3) (SEQ ID NO: 3) was synthesized, to which a Tyr residue was attached to the C-terminus for radioiodination. The N-terminus of the peptide was acetylated and the C-terminus amidated. NHS-ABG was synthesized as previously described and freshly dissolved in dimethyl sulfoxide to a concentration of 50 mM and NHS-ABG in 0.1 M sodium phosphate (pH 7.5) to a concentration of 20 mM. These reagent solutions were immediately used to derivatize receptor peptides. In the dark, 10 μl of NHS-ABG was added to […] of receptor peptides in 40 μl of 0.1 M sodium phosphate (pH 7.5). The mixture was incubated with NHS-ABG for 30 minutes at 25° C. […] After 20 sec, 7 μl of sodium metabisulfite (2.5 mg/ml) in 10 mM Na2 HPO4, pH 7.4, was introduced to terminate radioiodination.
Competitive inhibition experiments were carried out for the photoaffinity labeling experiments. 10 μl of PBS was introduced to each tube and the mixture was incubated with 10 μl of increasing concentrations of nonradioactive receptor peptides. The mixtures were incubated at 37° C. for 90 minutes in the dark, irradiated with Mineralight R-52 UV lamp for 3 minutes as previously described, and solubilized in 2% SDS, 100 mM dithiothreitol and 8 M urea. The samples were electrophoresed on 8-12% polyacrylamide gradient gels. […]

The test system of another assay is FSHR. Kind of assay: Inhibition of ^125I-FSH binding to the receptor on intact cells by exoloop 3 peptide. Further details: species or system human. Here is the method:
The FSH a and b subunits separated in the lower band and upper band, respectively.
Human FSH (the National Hormone and Pituitary Program) was radioiodinated as previously described for radioiodination of hCG. […] The Kd values were determined by Scatchard plots. Truncated exodomain was solubilized in Nonidet P-40 and assayed for hormone binding as described previously. For intracellular cAMP assay, cells were washed twice with Dulbecco's modified Eagle's media and incubated in the media containing isobutylmethylxanthine (0.1 mg/ml) for 15 minutes. Increasing concentrations of FSH were then added and the incubation was continued for 45 minutes at 37° C. After removing the media, the cells were rinsed once with fresh media without isobutylmethylxanthine, lysed in 70% ethanol, freeze-thawed in liquid nitrogen, and scraped. […] Exoloop 3 of FSHR was modeled based on the crystal structure of rhodopsin as a template.

A further assay addresses T4, LHR (Homo sapiens, UniProt P22888).
T4 construct: expressed in transfected cells
Briefly: Inhibition of ^125I-hCG binding to cells stably expressing LHR. The conditions noted are these: increasing concentrations of nonradioactive competitor. Here is the method: The cells were washed and bound radioactivity was measured.
The Kd values were determined by Scatchard plots. For intracellular cAMP assay, cells were washed twice with Dulbecco's modified Eagle's media and incubated in the media containing isobutylmethylxanthine (0.1 mg/ml) for 15 minutes. Increasing concentrations of hormone were then added and the incubation was continued for 45 minutes at 37° C. After removing the media, the cells were rinsed once with fresh media without isobutylmethylxanthine, lysed in 70% ethanol, freeze-thawed in liquid nitrogen, and scraped.

A further assay relates to human LHR. Briefly: Inositol phosphate assay, LHR exoloop 3 mutants in HEK 293 cells, hCG stimulated. Type of assay: cell-based. To be noted: NS = not significant. As for the experimental part:
Stable cells were plated in 12 well plates and grown in inositol free DMEM (Atlanta Biologicals) supplemented with 8% heat-inactivated horse serum and […] [^3H]inositol (NEN) for 48 hours to 40-50% confluency. After removing the medium, the cells were incubated in 1 ml of fresh wash buffer consisting of DMEM w/o inositol and 15 mM HEPES (pH 7.3) for 1 hour at 37° C. This medium was removed and 0.3 ml wash buffer containing 20 mM LiCl was added and incubated for 15 minutes at 37° C. After the cells were stimulated with increasing concentrations of hormone for 30 minutes at 37° C., the incubation was terminated by the removal of medium and the addition of 0.25 ml of 0.6 N HCl to each well. The cells were scraped, transferred into microcentrifuge tubes and the wells were again washed with 0.25 ml of 0.6 N HCl. The combined washes were treated with 0.9 ml of a mixture of chloroform:methanol (2:1), vortexed and centrifuged at 1000×g for 5 minutes at room temperature. The top aqueous layer, which was free of phospholipids, was removed and the remaining chloroform layer treated with 0.2 ml of methanol:water (1:1), vortexed and centrifuged, as above. This aqueous layer was added to the previous aqueous layer and the samples dried in a vacuum concentrator. […] Aliquots of 200 μl were counted for radioactivity in 1.5 ml of Ultima AF scintillation fluid (Packard). […]

Sequence of FSHR (P23945 18-695): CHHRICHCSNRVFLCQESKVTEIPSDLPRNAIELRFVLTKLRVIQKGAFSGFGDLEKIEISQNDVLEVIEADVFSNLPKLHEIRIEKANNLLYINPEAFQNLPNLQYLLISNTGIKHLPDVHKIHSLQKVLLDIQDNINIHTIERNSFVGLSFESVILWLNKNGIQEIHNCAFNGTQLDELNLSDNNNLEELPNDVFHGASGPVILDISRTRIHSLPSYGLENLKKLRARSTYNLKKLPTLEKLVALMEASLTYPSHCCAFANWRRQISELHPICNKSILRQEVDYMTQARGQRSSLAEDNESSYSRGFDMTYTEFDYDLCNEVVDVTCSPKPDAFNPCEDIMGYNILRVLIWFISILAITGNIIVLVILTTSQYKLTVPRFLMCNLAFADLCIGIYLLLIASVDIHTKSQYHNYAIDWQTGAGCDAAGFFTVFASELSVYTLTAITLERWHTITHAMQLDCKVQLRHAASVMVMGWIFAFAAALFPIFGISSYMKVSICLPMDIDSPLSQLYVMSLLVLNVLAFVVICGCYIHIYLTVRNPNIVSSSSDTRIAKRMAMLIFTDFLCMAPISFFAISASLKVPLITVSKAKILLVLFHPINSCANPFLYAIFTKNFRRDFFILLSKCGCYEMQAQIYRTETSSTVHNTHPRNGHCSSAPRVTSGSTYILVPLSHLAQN
T4 sequence (P22888 27-699): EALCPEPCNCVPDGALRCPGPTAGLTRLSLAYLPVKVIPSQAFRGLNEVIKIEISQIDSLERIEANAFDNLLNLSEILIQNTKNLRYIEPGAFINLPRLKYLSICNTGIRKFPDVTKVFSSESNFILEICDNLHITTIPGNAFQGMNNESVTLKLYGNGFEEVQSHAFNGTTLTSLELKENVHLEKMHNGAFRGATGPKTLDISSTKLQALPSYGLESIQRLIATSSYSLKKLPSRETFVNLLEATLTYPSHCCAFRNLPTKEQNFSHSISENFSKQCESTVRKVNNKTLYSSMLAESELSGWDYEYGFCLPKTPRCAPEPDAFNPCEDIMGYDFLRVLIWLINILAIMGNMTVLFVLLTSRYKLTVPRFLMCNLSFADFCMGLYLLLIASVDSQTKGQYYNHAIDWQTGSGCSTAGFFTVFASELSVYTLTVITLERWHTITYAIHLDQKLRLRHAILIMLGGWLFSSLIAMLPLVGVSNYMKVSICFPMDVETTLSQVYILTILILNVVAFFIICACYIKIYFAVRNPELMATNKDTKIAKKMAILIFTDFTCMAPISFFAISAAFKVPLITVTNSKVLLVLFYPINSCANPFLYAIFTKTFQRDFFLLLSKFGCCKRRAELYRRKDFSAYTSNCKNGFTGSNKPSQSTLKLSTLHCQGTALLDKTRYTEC
Sequence of human LHR (P22888 27-363 limits assumed): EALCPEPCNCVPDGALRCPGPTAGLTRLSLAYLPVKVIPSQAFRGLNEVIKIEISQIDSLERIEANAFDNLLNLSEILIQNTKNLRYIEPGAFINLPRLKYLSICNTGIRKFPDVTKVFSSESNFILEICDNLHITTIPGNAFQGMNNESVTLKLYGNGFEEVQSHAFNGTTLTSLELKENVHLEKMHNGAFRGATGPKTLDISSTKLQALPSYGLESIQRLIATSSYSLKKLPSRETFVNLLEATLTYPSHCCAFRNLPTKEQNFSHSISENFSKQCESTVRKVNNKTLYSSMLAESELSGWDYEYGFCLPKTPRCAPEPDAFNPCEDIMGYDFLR
T2 sequence (P01215 25-116): as the sequence (P01215 25-116, other chains not shown) above
T2 sequence (P01229 21-141): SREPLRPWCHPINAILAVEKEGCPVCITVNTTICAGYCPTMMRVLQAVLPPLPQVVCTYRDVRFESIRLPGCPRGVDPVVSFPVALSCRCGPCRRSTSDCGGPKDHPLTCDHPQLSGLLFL

For the substance “ABG-^125I-LHR^exo3: LHR exoloop 3 peptide derivatized with N-hydroxysuccinimide of 4-azidobenzoyl glycine and radio-iodinated (Ac-KVPLITVTNSK(ABG)[Tyr(125I)]-NH2; also: derivatized with N-hydroxysuccinimide ester of 4-azidobenzoyl glycine, radio-iodinated (125I))”, the “labeled hCG subunits” value with hCG is recorded as “the a band labeled slightly more than the β band”. Moreover, the “hCG concentration at which the maximum labeling was reached” value with hCG (both hormone subunits, constant amount of probe) was determined as 50 nM. Moreover, the “photoaffinity labeling of denatured hCG” value with hCG (hCG boiled in 8 M urea) was “not labeled at all”. The “photoaffinity labeling of LH subunits” value with human LH is “Both of the α and β subunits of LH were labeled”. For the same substance, in assay [1], the “photoaffinity labeling of phospholipase A, phospholipase C, phospholipase D and urokinase” value is given as “not photoaffinity labeled”.

Turning to “FSHR^9-40: peptide mimic of FSH receptor sequence S9-K40, SNRVFLCQESKVTEIPSDLPRNAIELRFVLTK (SEQ ID NO: 2) (Ac-YSNRVFLCQESKVTEIPSDLPRNAIELRFVLTK-NH2; not fully specified (some residues); printed as S9NRVFLCQESKVTEIPSDLPRNAIELRFVLTK40)”, in the assay with FSH [2], the “inhibition of photoaffinity labeling of FSH by ^125I-FSHR^9-40F13Bpa” value is listed as “inhibited the photoaffinity labeling in a dose dependent manner”. Moreover, the “inhibition of photoaffinity labeling of FSH by ^125I-ABG-FSHR^exo3” value in the assay with FSH [3] is reported as “inhibited the photoaffinity labeling in a dose dependent manner”.

Turning to “FSHR^exo3: peptide mimic of FSHR exoloop 3, KVPLITVSKAK (SEQ ID NO: 3), C-terminal Tyr, N-acetylated, C-amidated (Ac-KVPLITVSKAKY-NH2)”, the “inhibition of photoaffinity labeling of FSH by ^125I-ABG-FSHR^exo3” value with FSH [3] is listed as “inhibited the photoaffinity labeling in a dose dependent manner”. For the same substance, the “inhibition of ^125I-FSH binding to the receptor on intact cells” value with FSHR is “inhibited ^125I-FSH binding to the receptor on intact cells in a dose dependent manner”.

“LHR^18-36: N-terminal peptide of the LHR exodomain (CPGPTAGLTRLSLAYLPVK)”: the “inhibition of photoaffinity labeling of hCG by ABG-^125I-LHR^exo3” value in the assay with hCG is “failed to inhibit the labeling”.

As for “LHR^exo3: peptide mimic of LHR exoloop 3, KVPLITVTNSK, C-terminal Tyr, N-acetylated, C-amidated (Ac-KVPLITVTNSKY-NH2)”, the “inhibition of photoaffinity labeling of hCG by ABG-^125I-LHR^exo3” value in the assay with hCG is given as “blocked the labeling”. Besides, the “inhibition of ^125I-hCG binding to LHR” value with LHR is recorded as “inhibited ^125I-hCG binding to LHR”.

On to “Wildtype: wild type human LH receptor expressed in HEK 293 cells (Table II)”, for which the “IP1 (cpm)” value in the assay on human LHR is 13,780-w cpm.
